This is an account of results in patent US20250332278A1, “MULTIVALENT DISPLAY OF APOAI PEPTIDE ON NANOPARTICLES AGAINST ATHEROSCLEROSIS” (The Regents of the University of California, priority 2022, published 2025).

The target of series [1] is ATP-binding cassette transporter A1 (ABCA1) on J774 foam cells (UniProt P41233). Briefly: cell-based or functional assay.
Series [2] can be described thus: Dynamic light scattering of VLP/VNP conjugates. Type of series: physicochemical. The conditions noted are these: 1 mg/mL in 0.01 M KP buffer. Here is the method: Dynamic Light Scattering (DLS). The hydrodynamic diameter of VLPs/VNPs conjugates were probed using a Zetasizer Nano ZSP/Zen5600 instrument (Malvern Panalytical, Malvern, UK). Particle hydrodynamic diameter was calculated as the weighted mean of the intensity distribution and samples were analyzed at 1 mg/mL concentration in 0.01 M KP buffer.

Series [3] relates to J774 foam cells (ABCA1-mediated cholesterol efflux). Briefly: J774 cholesterol efflux assay. Type of series: cell-based. Here is the method:
J774 Cholesterol efflux assay. Cholesterol efflux was measured from J774 cells (ATCC) as previously described.^23 Briefly, J774 cells were seeded in 96-well plates at 1×10^5 cells/100 μL in DMEM (Corning) with 10% (v/v) fetal bovine serum (FBS) and 1% (w/v) penicillin-streptomycine (P/S). Cells were incubated until they reached ˜80% confluence. After two rinses with FBS-free DMEM containing 1% (w/v) P/S they were incubated for 48 h in 200 μL FBS-free DMEM containing 40 μg/mL acetylated low-density lipoprotein (AcLDL), 2 μg/mL Sandoz inhibitor, 1% (w/v) P/S, and 5% (v/v) human lipoprotein-deficient serum (LPDS) to produce foam cells. Excess lipids were removed by two rinses as above, and foam cells were equilibrated for 12 h in 200 μL FBS-free DMEM, 2 μg/mL Sandoz inhibitor, 0.3 mM CPT-cAMP, 1% (w/v) P/S, and 5% (v/v) human LPDS. After two further rinses, cholesterol efflux was initiated by adding different VLP/VNP or peptide treatments in FBS-free DMEM containing 1% (w/v) P/S and 5% (v/v) human LPDS and incubating for 15 h. The medium was then collected, centrifuged (1000×g, 10 min, 4° C.) and the cholesterol content of the supernatant was determined using the Amplex assay kit. Cells were washed three times with ice-cold PBS, lysed using 200 μL of Cytobuster lysis buffer, and the cholesterol content of the lysate was determined using the Amplex assay kit. Cholesterol efflux was calculated by dividing the amount of cholesterol in the medium by the total cholesterol content of the medium and lysate.

Series [4] has as its system SVEC cells. Briefly: Wound healing assay under oxidative stress. Type of series: cell-based. Conditions: 0.5 μM, 8-h treatment, 4-h 50 μg/mL ox-LDL, versus control (serum-free medium). Here is the method: Wound healing assay. SVEC cell migration was investigated using a Radius 96-well kit (Cell Bio Labs). Applicant seeded 3×10^4 cells in 200 μL DMEM per well and allowed the cells to reach ˜80% confluence. After removing the Radius Gel, cells were allowed to migrate for 24 h in the presence of various treatments. Bright-field phase contrast images were acquired after 0, 12 and 24 h using an EVOS FL microscope fitted with a 10× objective (n=6 cells per group). Percentage wound closure was calculated by tracing the wound perimeter in ImageJ to calculate the area at t=12 or 24 h and dividing by the initial starting area at t=0 h.
Applicant therefore evaluated the effect of T-4FN on wound healing using SVEC cells.

The subject of series [5] is SVEC cells. Briefly: ROS assay. Type of series: cell-based. Conditions: 8 h treatment (0.5 μM particles or matched free peptide), then ox-LDL 4 h. Here is the method: ROS assay. SVEC cells (ATCC) were seeded in four-compartment 35-mm CELLview glass-bottom dishes or 96-well plates at 6×10^4 cells/mL in 500 μL DMEM and were allowed to reach ˜80% confluence. The medium was then removed, and the cells were washed once with PBS before incubation with VLPs/VNPs for 8 h. Applicant then added 100 μg/mL ox-LDL for 4 h to induce oxidative stress and detected ROS using a CellROX Green Reagent Kit. Images were captured using a Nikon AiR confocal microscope with a 20×, 0.75 numerical aperture dry objective.

The next series has as its system J774 foam cells. Briefly: TMV-ApoAI distribution during cholesterol efflux from J774 foam cells (confocal fluorescence microscopy). Type of series: cell-based. Conditions: 0.5 μM 5FAM-labeled particles, 12 h. Here is the method:
TMV-ApoAI distribution during cholesterol efflux from J774 foam cells. Applicant seeded 1×10^5 J774 cells in 500 μL DMEM containing 10% (v/v) FBS and 1% (w/v) P/S into each zone of a four-compartment 35-mm CELLview glass-bottom dish, and allowed them to reach ˜80% confluence. Cells were rinsed twice with 500 μL FBS-free DMEM containing 1% (w/v) P/S and incubated for 48 h in 200 μL FBS-free DMEM containing 40 μg/mL of fluorescence-labeled acetylated low-density lipoprotein (Dil-AcLDL), 2 μg/mL Sandoz inhibitor, 1% (w/v) P/S, and 5% (v/v) human LPDS to produce labeled foam cells. After two rinses as above, foam cells were equilibrated for 12 h in 200 μL FBS-free DMEM containing 2 μg/mL Sandoz inhibitor, 0.3 mM CPT-cAMP, 1% (w/v) P/S, and 5% (v/v) human LPDS. After two further rinses, the cells were treated with 100 μL of 5FAM-labeled treatments and controls in FBS-free DMEM containing 1% (w/v) P/S and 5% (v/v) human LPDS. After 12 h, the cells were washed twice with 500 μL PBS and then fixed for 10 minutes at room temperature using a PBS solution containing 10% (w/v) PFA, 25% (w/v) glutaraldehyde. Cells were then twice washed with PBS and subsequently stained for 45 min with 300 μL of wheat-germ agglutinin AlexaFluor 647 (WGA-647) prepared in PBS and 5% (v/v) goat serum at a 1:500 dilution. Cells were then twice washed with PBS and then stained with 300 μL DAPI dye (5 μg/mL in PBS) for 20 min. Cells were washed twice with PBS and then imaged using a Nikon AiR confocal microscope with a 20×, 0.75 numerical aperture dry objective.
A fluorescently labeled T-4FN-5FAM was used to promote cholesterol efflux from fluorescently-labeled foam cells (FIG. 5A and FIG. 15B). Cholesterol and T-4FN-5FAM fluorescence was quantified using Nikon AR Elements Analysis software's 3D volume viewer tool and plotted in a bar graph (FIG. 5C and FIG. 5D).

Series [6] is described as follows: BODIPY-cholesterol binding assay (DLS and fluorescence). The conditions noted are these: for PDI after incubation with BODIPY-cholesterol / Zav after incubation with BODIPY-cholesterol: 20 uM BODIPY-cholesterol; for PDI after incubation with BODIPY-cholesterol: 2 h at 37° C.; for size change / cholesterol binding on incubation with BODIPY-cholesterol: relative to cholesterol-free controls. The protocol: BODIPY-Cholesterol Binding assay. A fluorescent cholesterol, BODIPY-cholesterol or 23-(dipyrrometheneboron difluoride)-24-norcholesterol was used to examine the HDL biomimics' ability to uptake cholesterol. VNP samples (500 μg) and equimolar HDL were incubated with 20 uM BODIPY-cholesterol for 2 hours at 37° C. on a shaker at 150 rpm in 0.5 mL of 10 mM KP/DMSO. After incubation, samples were purified by centrifuge using 100 kDa molecular-weight cutoff Amicon spin-filters to remove free, unbound cholesterol. Samples were analyzed for size on DLS (see above) and fluorescence before and after BODIPY-cholesterol binding using 480/508 nm excitation/emission parameters on a Tecan Plate Reader.
To investigate the ability of the TMV particles to bind cholesterol, Applicant mixed them with fluorescent BODIPY cholesterol for 2 h at 37° C. in 0.01M KP/DMSO (50:50).
The cholesterol-bound nanoparticles were separated from free cholesterol by centrifugation in spin filters with a 100-kDa cutoff. Samples without cholesterol were incubated as a negative control. Purified fractions were analyzed by DLS and fluorimetry.

UniProt P41233, sequence (P41233 whole entry): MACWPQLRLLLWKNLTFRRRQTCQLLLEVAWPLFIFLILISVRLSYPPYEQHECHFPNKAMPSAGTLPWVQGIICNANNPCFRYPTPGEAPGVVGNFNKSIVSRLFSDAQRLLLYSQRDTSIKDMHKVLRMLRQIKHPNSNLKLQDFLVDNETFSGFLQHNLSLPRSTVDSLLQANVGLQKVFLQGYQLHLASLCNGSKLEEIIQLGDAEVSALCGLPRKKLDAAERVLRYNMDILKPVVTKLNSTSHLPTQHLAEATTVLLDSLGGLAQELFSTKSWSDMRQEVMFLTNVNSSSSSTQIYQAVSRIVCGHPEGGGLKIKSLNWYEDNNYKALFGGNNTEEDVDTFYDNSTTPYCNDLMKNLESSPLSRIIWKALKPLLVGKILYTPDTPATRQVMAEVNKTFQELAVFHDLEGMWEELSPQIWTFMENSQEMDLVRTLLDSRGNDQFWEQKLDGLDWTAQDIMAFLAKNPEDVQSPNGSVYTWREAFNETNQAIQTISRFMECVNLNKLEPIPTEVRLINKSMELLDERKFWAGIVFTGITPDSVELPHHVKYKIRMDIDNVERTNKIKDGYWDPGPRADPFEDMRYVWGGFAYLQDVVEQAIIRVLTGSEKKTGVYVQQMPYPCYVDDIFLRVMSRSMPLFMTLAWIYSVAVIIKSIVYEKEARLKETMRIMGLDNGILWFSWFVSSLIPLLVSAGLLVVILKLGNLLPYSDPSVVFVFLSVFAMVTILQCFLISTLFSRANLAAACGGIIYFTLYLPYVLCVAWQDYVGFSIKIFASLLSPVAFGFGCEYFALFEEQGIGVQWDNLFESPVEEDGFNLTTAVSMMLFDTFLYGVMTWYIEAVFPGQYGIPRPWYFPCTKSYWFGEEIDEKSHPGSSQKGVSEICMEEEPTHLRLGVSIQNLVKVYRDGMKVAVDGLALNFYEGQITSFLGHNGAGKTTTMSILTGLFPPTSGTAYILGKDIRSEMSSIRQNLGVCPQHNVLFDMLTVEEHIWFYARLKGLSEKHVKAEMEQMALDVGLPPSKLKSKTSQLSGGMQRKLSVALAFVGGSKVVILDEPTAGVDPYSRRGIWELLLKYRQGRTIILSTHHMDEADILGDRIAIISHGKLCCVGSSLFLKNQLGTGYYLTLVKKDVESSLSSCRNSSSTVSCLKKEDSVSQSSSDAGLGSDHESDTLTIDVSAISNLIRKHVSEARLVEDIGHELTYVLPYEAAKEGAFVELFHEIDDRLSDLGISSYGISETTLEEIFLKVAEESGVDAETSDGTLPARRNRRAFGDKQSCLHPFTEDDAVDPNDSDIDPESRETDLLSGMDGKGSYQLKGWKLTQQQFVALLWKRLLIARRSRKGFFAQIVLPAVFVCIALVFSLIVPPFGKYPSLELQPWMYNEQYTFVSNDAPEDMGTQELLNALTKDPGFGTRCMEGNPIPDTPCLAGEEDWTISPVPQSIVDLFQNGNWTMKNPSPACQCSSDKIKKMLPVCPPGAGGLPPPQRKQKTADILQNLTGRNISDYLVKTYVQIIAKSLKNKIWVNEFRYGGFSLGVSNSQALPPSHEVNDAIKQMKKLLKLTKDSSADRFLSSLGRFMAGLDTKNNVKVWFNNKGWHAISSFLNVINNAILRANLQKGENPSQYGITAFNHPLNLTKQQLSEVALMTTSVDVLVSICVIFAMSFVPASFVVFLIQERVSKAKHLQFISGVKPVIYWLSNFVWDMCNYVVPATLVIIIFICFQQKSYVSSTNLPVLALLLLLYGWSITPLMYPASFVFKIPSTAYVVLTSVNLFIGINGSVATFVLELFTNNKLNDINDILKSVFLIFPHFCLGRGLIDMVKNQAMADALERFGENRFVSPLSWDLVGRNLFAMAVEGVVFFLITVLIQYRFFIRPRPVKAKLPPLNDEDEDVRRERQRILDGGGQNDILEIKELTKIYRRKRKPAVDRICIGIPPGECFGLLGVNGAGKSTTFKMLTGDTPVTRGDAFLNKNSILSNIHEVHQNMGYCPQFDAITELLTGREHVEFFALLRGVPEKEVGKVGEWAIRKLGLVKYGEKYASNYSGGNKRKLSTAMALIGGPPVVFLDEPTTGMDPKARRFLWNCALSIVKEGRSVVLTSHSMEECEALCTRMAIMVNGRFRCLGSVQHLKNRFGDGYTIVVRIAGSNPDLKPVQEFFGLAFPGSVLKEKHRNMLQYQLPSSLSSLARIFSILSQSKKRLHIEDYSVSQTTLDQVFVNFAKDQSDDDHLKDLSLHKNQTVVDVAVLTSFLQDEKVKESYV

“TMV-4FN conjugate (TMV-Lys nanoparticle displaying ApoAI peptide 4FN through an SM(PEG)4 linker) (from UniProt P69687 2-157)” yielded a cholesterol efflux from J774 foam cells under upregulated ABCA1 conditions (fold (against TMV-4FC)) in series [1] of 2.5.

For “Qβ: 30-nm spherical virus-like particle with 180 identical coat protein units (SEQ ID NO: 6)”, in series [2], the “PDI (DLS)” value amounted to 0.06 and the “Zav (hydrodynamic diameter, DLS)” value is on record as approximately 30.4 nm.

Turning to CSGGGDWFKAFYDKVAEKFKEAF [4FN], the cholesterol efflux entry in series [3] (upregulated ABCA1 conditions) was “most potent peptide”. In the series with SVEC cells [4], the “increase in wound closure after 24 h” value is recorded as 3.20 fold.

Take CGVLESFKASFLSALEEWTKKLQ [23MJ]: in the series with SVEC cells [5], the “ROS production (mitigation)” value is “did not mitigate ROS”.

B1: Qβ-4FN: bacteriophage Qβ VLP conjugated to ApoAI peptide 4FN via SM(PEG)4 (conjugate)
chain: AKLETVTLGNIGKDGKQTLVLNPRGVNPTNGVASLSQAGAVPALEKRVTVSVSQPSRNRKNYKVQVKIQNPTACTANGSCDPSVTRQAYADVTFSFTQYSTDEERAFVRTELAALLASPLLIDAIDQLNPAY
peptide: CSGGGDWFKAFYDKVAEKFKEAF
B1: in series [2], the “PDI (DLS)” value was 0.177 and the “Zav (hydrodynamic diameter, DLS)” value is on record as approximately 40.5 nm. For the same molecule, the cholesterol efflux entry in series [3] (upregulated ABCA1 conditions) is on record as “does not display significant cholesterol efflux”.

B2: T-4FN: TMV-Lys nanoparticle with 4FN ApoAI peptide conjugated to surface lysines via SM(PEG)4 maleimide-thiol chemistry (conjugate)
chain: SYSITTPSQFVFLSSAWADPIELINLCTNALGNQFQTQQARTVVQRQFSEVWKPSPQVTVRFPDSDFKVYRYNAVLDPLVTALLGAFDTRNRIIEVENQANPTTAETLDATRRVDDATVAIRSAINNLIVELIRGTGSYNRSSFESSSGLVWTSGPK
peptide: CSGGGDWFKAFYDKVAEKFKEAF
On to B2, for which, in series [2], the “PDI (DLS)” value is 0.266 and the “Zav (hydrodynamic diameter, DLS)” value was approximately 255.8 nm. The “cholesterol efflux when ABCA1 receptor is not upregulated” value in series [3] (homeostatic ABCA1 conditions, FIG. 4D) was “drastically decreases”. Besides, in series [3] (upregulated ABCA1 conditions, FIGS. 4B-4C), the “cholesterol efflux potency relative to TMV-4FC” value is recorded as approximately 2.5 fold. In addition, in the series with J774 foam cells, the “Dil-LDL cholesterol fluorescence intensity (cell-associated)” value is given as “significantly lower”; the “fluorescence intensity of 5FAM (cell-associated)” value was “significantly higher”; the “localization of particles on foam cells” value is given as “extracellular, forming a dense layer on the plasma membrane”. Moreover, in series [6], the “PDI after incubation with BODIPY-cholesterol” value amounted to 0.145 and the “size change / cholesterol binding on incubation with BODIPY-cholesterol” value is on record as “greatest change”. The “Zav after incubation with BODIPY-cholesterol” value in series [6] (2 h at 37° C. in 0.01M KP/DMSO) was 708.8 nm. Further, the “change in fluorescence after BODIPY-cholesterol binding” value in series [6] (480/508 nm, signal after minus before binding) is on record as “most intense signal”. For the same molecule, in series [6] (cholesterol-free control), the “PDI before incubation with BODIPY-cholesterol” value was 0.193. In addition, in series [6] (cholesterol-free control, 2 h at 37° C. in 0.01M KP/DMSO), the “Zav before incubation with BODIPY-cholesterol” value is 220.5 nm. In addition, in the series with SVEC cells [5], the “ROS production (mitigation)” value is “reducing the ROS signal to near the level of the negative media control”. In the series with SVEC cells [4], the “increase in wound closure after 12 h” value worked out at 6.41 fold and the “increase in wound closure after 24 h” value came to 4.70 fold.

B3: TMV (protein)
chain: MSYSITTPSQFVFLSSAWADPIELINLCTNALGNQFQTQQARTVVQRQFSEVWKPSPQVTVRFPDSDFKVYRYNAVLDPLVTALLGAFDTRNRIIEVENQANPTTAETLDATRRVDDATVAIRSAINNLIVELIRGTGSYNRSSFESSSGLVWTSGPK
As for B3, in series [2], the “PDI (DLS)” value is 0.230 and the “Zav (hydrodynamic diameter, DLS)” value is approximately 203.1 nm. Besides, in the series with J774 foam cells, the “Dil-LDL cholesterol fluorescence intensity (cell-associated)” value is “promotes a baseline level of cholesterol efflux” and the “localization of particles on foam cells” value is “mostly observed within the foam cells”. In series [6], the “PDI after incubation with BODIPY-cholesterol” value amounted to 0.158 and the “size change / cholesterol binding on incubation with BODIPY-cholesterol” value is listed as “inherent affinity for cholesterol”. Besides, the “Zav after incubation with BODIPY-cholesterol” value in series [6] (2 h at 37° C. in 0.01M KP/DMSO) worked out at 293.6 nm. In series [6] (cholesterol-free control), the “PDI before incubation with BODIPY-cholesterol” value was determined as 0.240. Moreover, in the series with SVEC cells [4], the “increase in wound closure after 12 h” value was found to be 2.58 fold and the “increase in wound closure after 24 h” value was found to be 3.15 fold.
